Data as given in patent US20240390508A1 (Takeda / Millennium, published 2024).

B1: Y6-HDO conjugate of Example 1 (compound A1 annealed with compound C1) (peptide)
peptide: AVFVWNYYIIRRYYC
modifications: MeF at 3, MeY at 14 (N-methyl); thioether ring from N-terminal chloroacetyl-Ala to Cys 15; C-terminal Gly-KN3-NH2, azide joined to BCN on the oligonucleotide
notes: also called A1/C1
B2: peptide-HDO conjugate of Example 9 (first nucleic acid strand A1, second nucleic acid strand C9) (peptide)
peptide: AVFVWNYYIIRRYYC
modifications: not fully specified; MeF at 3, MeY at 14 (N-methyl); thioether ring from N-terminal chloroacetyl-Ala to Cys 15; C-terminal Gly-KN3-NH2, azide joined to BCN on the oligonucleotide
notes: also called A1/C9
B3: peptide-HDO conjugate of Example 10 (first nucleic acid strand A2, second nucleic acid strand C10) (peptide)
peptide: AVFVWNYYIIRRYYC
modifications: MeF at 3, MeY at 14 (N-methyl); thioether ring from N-terminal chloroacetyl-Ala to Cys 15; C-terminal Gly-KN3-NH2, azide joined to BCN on the oligonucleotide
notes: also called A2/C10
B4: peptide-HDO conjugate of Example 11 (first nucleic acid strand A2, second nucleic acid strand C11) (peptide)
peptide: AVFVWNYYIIRRYYC
modifications: MeF at 3, MeY at 14 (N-methyl); thioether ring from N-terminal chloroacetyl-Ala to Cys 15; C-terminal Gly-KN3-NH2, azide joined to BCN on the oligonucleotide
notes: also called A2/C11
B5: peptide-HDO conjugate of Example 13 (first nucleic acid strand A2, second nucleic acid strand C13) (peptide)
peptide: AVFVWNYYIIRRYYC
modifications: MeF at 3, MeY at 14 (N-methyl); thioether ring from N-terminal chloroacetyl-Ala to Cys 15; C-terminal Gly-KN3-NH2, azide joined to BCN on the oligonucleotide
notes: also called A2/C13
B6: peptide-HDO conjugate of Example 14 (first nucleic acid strand A2, second nucleic acid strand C4) (peptide)
peptide: AVFVWNYYIIRRYYC
modifications: MeF at 3, MeY at 14 (N-methyl); thioether ring from N-terminal chloroacetyl-Ala to Cys 15; C-terminal Gly-KN3-NH2, azide joined to BCN on the oligonucleotide
notes: also called A2/C4
B7: peptide-HDO conjugate of Example 15 (first nucleic acid strand A2, second nucleic acid strand C15) (peptide)
peptide: AVFVWNYYIIRRYYC
modifications: MeF at 3, MeY at 14 (N-methyl); thioether ring from N-terminal chloroacetyl-Ala to Cys 15; C-terminal Gly-KN3-NH2, azide joined to BCN on the oligonucleotide
notes: also called A2/C15
B8: peptide-HDO conjugate of Example 16 (first nucleic acid strand A2, second nucleic acid strand C16) (peptide)
peptide: AVFVWNYYIIRRYYC
modifications: MeF at 3, MeY at 14 (N-methyl); thioether ring from N-terminal chloroacetyl-Ala to Cys 15; C-terminal Gly-KN3-NH2, azide joined to BCN on the oligonucleotide
notes: also called A2/C16
B9: peptide-HDO conjugate of Example 2 (first nucleic acid strand A1, second nucleic acid strand C2) (peptide)
peptide: AVFVWNYYIIRRYYC
modifications: MeF at 3, MeY at 14 (N-methyl); thioether ring from N-terminal chloroacetyl-Ala to Cys 15; C-terminal Gly-KN3-NH2, azide joined to BCN on the oligonucleotide
notes: also called A1/C2
B10: peptide-HDO conjugate of Example 18 (first nucleic acid strand A1, second nucleic acid strand C18) (peptide)
peptide: AVFVWNYYIIRRYYC
modifications: MeF at 3, MeY at 14 (N-methyl); thioether ring from N-terminal chloroacetyl-Ala to Cys 15; C-terminal Gly-KN3-NH2, azide joined to BCN on the oligonucleotide
notes: also called A1/C18
B11: peptide-HDO conjugate of Example 19 (first nucleic acid strand A1, second nucleic acid strand C19) (peptide)
peptide: AVFVWNYYIIRRYYC
modifications: MeF at 3, MeY at 14 (N-methyl); thioether ring from N-terminal chloroacetyl-Ala to Cys 15; C-terminal Gly-KN3-NH2, azide joined to BCN on the oligonucleotide
notes: also called A1/C19
B12: peptide-HDO conjugate of Example 20 (first nucleic acid strand A1, second nucleic acid strand C20) (peptide)
peptide: AVFVWNYYIIRRYYC
modifications: MeF at 3, MeY at 14 (N-methyl); thioether ring from N-terminal chloroacetyl-Ala to Cys 15; C-terminal Gly-KN3-NH2, azide joined to BCN on the oligonucleotide
notes: also called A1/C20
B13: peptide-HDO conjugate of Example 21 (first nucleic acid strand A1, second nucleic acid strand C21) (peptide)
peptide: AVFVWNYYIIRRYYC
modifications: MeF at 3, MeY at 14 (N-methyl); thioether ring from N-terminal chloroacetyl-Ala to Cys 15; C-terminal Gly-KN3-NH2, azide joined to BCN on the oligonucleotide
notes: also called A1/C21
B14: peptide-HDO conjugate of Example 22 (first nucleic acid strand A2, second nucleic acid strand C17) (peptide)
peptide: AVFVWNYYIIRRYYC
modifications: MeF at 3, MeY at 14 (N-methyl); thioether ring from N-terminal chloroacetyl-Ala to Cys 15; C-terminal Gly-KN3-NH2, azide joined to BCN on the oligonucleotide
notes: also called A2/C17
B15: peptide-HDO conjugate of Example 23 (first nucleic acid strand A2, second nucleic acid strand C18) (peptide)
peptide: AVFVWNYYIIRRYYC
modifications: MeF at 3, MeY at 14 (N-methyl); thioether ring from N-terminal chloroacetyl-Ala to Cys 15; C-terminal Gly-KN3-NH2, azide joined to BCN on the oligonucleotide
notes: also called A2/C18
B16: peptide-HDO conjugate of Example 24 (first nucleic acid strand A2, second nucleic acid strand C19) (peptide)
peptide: AVFVWNYYIIRRYYC
modifications: MeF at 3, MeY at 14 (N-methyl); thioether ring from N-terminal chloroacetyl-Ala to Cys 15; C-terminal Gly-KN3-NH2, azide joined to BCN on the oligonucleotide
notes: also called A2/C19
B17: peptide-HDO conjugate of Example 25 (first nucleic acid strand A2, second nucleic acid strand C20) (peptide)
peptide: AVFVWNYYIIRRYYC
modifications: MeF at 3, MeY at 14 (N-methyl); thioether ring from N-terminal chloroacetyl-Ala to Cys 15; C-terminal Gly-KN3-NH2, azide joined to BCN on the oligonucleotide
notes: also called A2/C20
B18: peptide-HDO conjugate of Example 26 (first nucleic acid strand A1, second nucleic acid strand C26) (peptide)
peptide: AVFVWNYYIIRRYYC
modifications: MeF at 3, MeY at 14 (N-methyl); thioether ring from N-terminal chloroacetyl-Ala to Cys 15; C-terminal Gly-KN3-NH2, azide joined to BCN on the oligonucleotide
notes: also called A1/C26
B19: peptide-HDO conjugate of Example 27 (first nucleic acid strand A1, second nucleic acid strand C27) (peptide)
peptide: AVFVWNYYIIRRYYC
modifications: MeF at 3, MeY at 14 (N-methyl); thioether ring from N-terminal chloroacetyl-Ala to Cys 15; C-terminal Gly-KN3-NH2, azide joined to BCN on the oligonucleotide
notes: also called A1/C27
B20: peptide-HDO conjugate of Example 28 (first nucleic acid strand A1, second nucleic acid strand C28) (peptide)
peptide: AVFVWNYYIIRRYYC
modifications: MeF at 3, MeY at 14 (N-methyl); thioether ring from N-terminal chloroacetyl-Ala to Cys 15; C-terminal Gly-KN3-NH2, azide joined to BCN on the oligonucleotide
notes: also called A1/C28
B21: peptide-HDO conjugate of Example 29 (first nucleic acid strand A1, second nucleic acid strand C29) (peptide)
peptide: AVFVWNYYIIRRYYC
modifications: MeF at 3, MeY at 14 (N-methyl); thioether ring from N-terminal chloroacetyl-Ala to Cys 15; C-terminal Gly-KN3-NH2, azide joined to BCN on the oligonucleotide
notes: also called A1/C29
B22: peptide-HDO conjugate of Example 30 (first nucleic acid strand A1, second nucleic acid strand C30) (peptide)
peptide: AVFVWNYYIIRRYYC
modifications: MeF at 3, MeY at 14 (N-methyl); thioether ring from N-terminal chloroacetyl-Ala to Cys 15; C-terminal Gly-KN3-NH2, azide joined to BCN on the oligonucleotide
notes: also called A1/C30
B23: peptide-HDO conjugate of Example 31 (first nucleic acid strand A1, second nucleic acid strand C31) (peptide)
peptide: AVFVWNYYIIRRYYC
modifications: MeF at 3, MeY at 14 (N-methyl); thioether ring from N-terminal chloroacetyl-Ala to Cys 15; C-terminal Gly-KN3-NH2, azide joined to BCN on the oligonucleotide
notes: also called A1/C31
B24: peptide-HDO conjugate of Example 32 (first nucleic acid strand A1, second nucleic acid strand C32) (peptide)
peptide: AVFVWNYYIIRRYYC
modifications: MeF at 3, MeY at 14 (N-methyl); thioether ring from N-terminal chloroacetyl-Ala to Cys 15; C-terminal Gly-KN3-NH2, azide joined to BCN on the oligonucleotide
notes: also called A1/C32
B25: peptide-HDO conjugate of Example 33 (first nucleic acid strand A1, second nucleic acid strand C33) (peptide)
peptide: AVFVWNYYIIRRYYC
modifications: MeF at 3, MeY at 14 (N-methyl); thioether ring from N-terminal chloroacetyl-Ala to Cys 15; C-terminal Gly-KN3-NH2, azide joined to BCN on the oligonucleotide
notes: also called A1/C33
B26: peptide-HDO conjugate of Example 34 (first nucleic acid strand A2, second nucleic acid strand C26) (peptide)
peptide: AVFVWNYYIIRRYYC
modifications: MeF at 3, MeY at 14 (N-methyl); thioether ring from N-terminal chloroacetyl-Ala to Cys 15; C-terminal Gly-KN3-NH2, azide joined to BCN on the oligonucleotide
notes: also called A2/C26

Molecular target: T1, human transferrin receptor (hTfR) (human, UniProt P02786 89-760, limits assumed)
T1 construct: 0.5 uM hTfR solution immobilised on a Ni-NTA chip with EDC/NHS; source and construct are not described; also called human TfR
T1 sequence (P02786 89-760 limits assumed): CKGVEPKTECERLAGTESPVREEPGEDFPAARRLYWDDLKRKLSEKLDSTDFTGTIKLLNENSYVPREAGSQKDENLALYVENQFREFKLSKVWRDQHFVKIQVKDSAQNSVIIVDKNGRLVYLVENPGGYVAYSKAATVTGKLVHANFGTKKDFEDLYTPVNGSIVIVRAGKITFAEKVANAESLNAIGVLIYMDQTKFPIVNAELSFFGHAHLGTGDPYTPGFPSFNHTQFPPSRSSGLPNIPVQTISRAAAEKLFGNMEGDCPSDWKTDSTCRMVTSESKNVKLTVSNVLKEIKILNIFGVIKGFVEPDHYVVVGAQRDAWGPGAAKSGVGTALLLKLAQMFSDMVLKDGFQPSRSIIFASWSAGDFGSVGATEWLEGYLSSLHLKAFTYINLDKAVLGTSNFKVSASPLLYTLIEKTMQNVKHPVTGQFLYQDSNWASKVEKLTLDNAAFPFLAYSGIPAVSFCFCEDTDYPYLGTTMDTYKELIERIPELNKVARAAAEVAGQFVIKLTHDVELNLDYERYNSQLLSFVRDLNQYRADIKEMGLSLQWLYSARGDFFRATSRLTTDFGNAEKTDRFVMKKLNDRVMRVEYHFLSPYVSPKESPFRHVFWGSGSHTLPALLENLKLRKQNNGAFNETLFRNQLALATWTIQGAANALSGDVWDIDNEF
Test: SPR, hTfR immobilised on NTA chip, single cycle kinetics; A = KD less than 100 nM
Description: The various synthesized peptide-nucleic acid conjugates were tested for intermolecular interaction by surface plasmon resonance (SPR) of the peptide-nucleic acid conjugate with transferrin receptor (hTfR) using the method shown below. The specific test method is shown below.
NTA sensor chip (Global Life Science Technologies Japan Co., Ltd.) was inserted into Biacore T200 (Global Life Science Technologies Japan Co., Ltd.), prime operation was performed three times with running buffer: 10 mM HEPES pH 8.0 (Nacalai Tesque Co., Ltd.), 150 mM NaCl (Nacalai Tesque Co., Ltd.), 0.05% Tween 20 (Nacalai Tesque Co., Ltd.), 0.1% BSA (SIGMA-ALDRICH), and 1.0% DMSO (FUJIFILM Wako Pure Chemical Corporation), and equilibrated at a flow rate of 30 μL/min. 350 mM EDTA solution was reacted for 60 seconds at a flow rate of 10 μL/min, 0.5 mM NiCl₂ solution (Kishida Chemical) was reacted for 60 seconds at a flow rate of 10 μL/min, and the NTA sensor chip was washed with 3 mM EDTA solution (Nacalai Tesque Co., Ltd.) for 60 seconds at a flow rate of 10 μL/min. After mixing 50 μL each of 60 mM EDC solution (Global Life Science Technologies Japan Co., Ltd.) and 650 mM NHS solution (Global Life Science Technologies Japan Co., Ltd.), the mixture was reacted for 420 seconds at a flow rate of 10 μL/min. 150 μL of a 0.5 μM hTfR solution was prepared by diluting with a running buffer and reacted for 300 seconds at a flow rate of 10 μL/min to immobilize hTfR on the NTA sensor chip. After immobilization, capping was performed by reacting with a 1.0 M ethanolamine aqueous solution (Global Life Science Technologies Japan Co., Ltd.) at a flow rate of 10 μL/min for 420 seconds. A peptide-nucleic acid conjugate solution adjusted to 10 mM in DMSO solution was diluted with running buffer to a final concentration of […] peptide-nucleic acid conjugate solution, and 100 nM, 50 nM, 25 nM, 10 nM, 5 nM peptide-nucleic acid conjugate solutions were prepared. Using the aforementioned samples, the kinetics of the peptide against hTfR was obtained by SPR measurement.
The kinetics evaluation model was Single Cycle Kinetics, and curve fitting was performed using Biacore T200 Evaluation Software Version 3.0 (Global Life Science Technologies Japan Co., Ltd.).

Row | Binder | Kd [nM]
1 | B1 | < 100
2 | B2 | < 100
3 | B3 | < 100
4 | B4 | < 100
5 | B5 | < 100
6 | B6 | < 100
7 | B7 | < 100
8 | B8 | < 100
9 | B9 | < 100
10 | B10 | < 100
11 | B11 | < 100
12 | B12 | < 100
13 | B13 | < 100
14 | B14 | < 100
15 | B15 | < 100
16 | B16 | < 100
17 | B17 | < 100
18 | B18 | < 100
19 | B19 | < 100
20 | B20 | < 100
21 | B21 | < 100
22 | B22 | < 100
23 | B23 | < 100
24 | B24 | < 100
25 | B25 | < 100
26 | B26 | < 100
